The source of these data is US20130210023, “NUCLEIC ACID […] AGAINST PLASMODIUM LACTATE DEHYDROGENASE AND HISTIDINE-RICH PROTEIN II AND USES […] FOR MALARIA DIAGNOSIS” (THE UNIVERSITY OF HONG KONG, published 2013).

The target of data set [1] is T1, Plasmodium falciparum lactate dehydrogenase (PfLDH) (Plasmodium falciparum 3D7, UniProt Q76NM3 Q76NM3:1-316). Kind of data set: ITC; nanomolar Kd, value only in figure; N=0.177; 25 mM Tris-HCl pH 7.5, 0.1 M NaCl, 20 mM imidazole, 25 C. The note with it: chain copies: 4 stated (tetramer in crystal). In general terms: Isothermal titration calorimetry measures the heat released or taken up as one component is titrated into another.

Data set [2] deals with human lactate dehydrogenase B (hLDHB) (Homo sapiens, UniProt P07195 P07195:2-334). Kind of data set: ITC; no binding by ITC, EMSA and SPR; no AuNP color change. The note with it: tags: His tag (pET-28a, HisTrap purified); chain copies: 4; last 8 nt disordered; not G4.
human lactate dehydrogenase B (hLDHB), sequence (P07195 2-334, one chain of several): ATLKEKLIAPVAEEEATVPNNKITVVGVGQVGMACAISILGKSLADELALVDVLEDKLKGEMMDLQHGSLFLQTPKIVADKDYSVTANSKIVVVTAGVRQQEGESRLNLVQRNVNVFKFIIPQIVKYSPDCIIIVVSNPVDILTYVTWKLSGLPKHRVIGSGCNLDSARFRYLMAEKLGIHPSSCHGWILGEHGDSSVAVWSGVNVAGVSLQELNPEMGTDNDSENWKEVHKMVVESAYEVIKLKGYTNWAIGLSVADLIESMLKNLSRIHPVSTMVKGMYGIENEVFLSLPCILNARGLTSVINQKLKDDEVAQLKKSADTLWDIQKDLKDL
Data set [3] deals with human lactate dehydrogenase A1 (hLDHA1) (Homo sapiens, UniProt P00338 P00338:1-332). The description is as above.
Data set [4] has as its target T1, Plasmodium falciparum lactate …. Kind of data set: structure; crystal structure, two aptamers per PfLDH tetramer; contacts residues 102-108, Asp53, Ile54 (A) and Lys62, His250 (B). The note with it: chain copies: 4 stated (tetramer in crystal); last 8 nt disordered; not G4.
Data set [5] shares this target. Kind of data set: ITC; nanomolar Kd, value only in figure; N=0.152; 25 mM Tris-HCl pH 7.5, 0.1 M NaCl, 20 mM imidazole, 25 C. The note with it: chain copies: 4 stated (tetramer in crystal).
For data set [6] the target is unchanged. Kind of data set: ITC; nanomolar Kd, value only in figure; N=0.451; 25 mM Tris-HCl pH 7.5, 0.1 M NaCl, 20 mM imidazole, 25 C. The following applies: chain copies: 4 stated (tetramer in crystal).
The target is the same in data set [7]. Kind of data set: ITC; nanomolar, similar Kd and stoichiometry to 2009s; same buffer, 25 C. The following applies: chain copies: 4 stated (tetramer in crystal).

B1: 2021s (ssDNA)
DNA: AGAATGGCGGGAGAGCCTTAGCGACCATTCGTAC
Take B1: the binding result in data set [1] is on record as “binds”.

B2: 2008s (ssDNA)
DNA: CTGGGCGGTAGAACCATAGTGACCCAGCCGTCTAC
As to B2, the binding result in data set [2] is “no binding”; in data set [3] it was “no binding”; in data set [4] it was “binds”.

B3: 2004s (ssDNA)
DNA: ACGCGAGCAGGTGGTAGAATCATAATGGCCTGATC
Turning to B3, the binding result in data set [5] is recorded as “binds”.

B4: 2009s (ssDNA)
DNA: TAGGTGGCCAGAAGGTAGAACCATAGTGGTCTGGTA
In the case of B4, the binding result in data set [6] is recorded as “binds”.

B5: 2009 (2009s with 18-mer flanks on both ends) (ssDNA)
DNA: CGTACGGTCGACGCTAGCTAGGTGGCCAGAAGGTAGAACCATAGTGGTCTGGTACACGTGGAGCTCGGATCC
Take B5: the binding result in data set [7] was “binds”.
